In patent US9879058B2, “Use of compounds that selectively modulate astrocytic release of substances through hemichannels of connexins and pannexins, without influencing gap junctions, for the treatment of psychiatric disorders” (Universidad Andres Bello, priority 2012, dated 2018):
Entries after “also recorded” stand apart in the source; their conditions may differ. No end group written: not given here.

Key:
[1] = target: Cx43 gap junction channel (Homo sapiens, UniProt P17302); settings: cited from earlier work
Cx43 gap junction channel, sequence (P17302 whole entry): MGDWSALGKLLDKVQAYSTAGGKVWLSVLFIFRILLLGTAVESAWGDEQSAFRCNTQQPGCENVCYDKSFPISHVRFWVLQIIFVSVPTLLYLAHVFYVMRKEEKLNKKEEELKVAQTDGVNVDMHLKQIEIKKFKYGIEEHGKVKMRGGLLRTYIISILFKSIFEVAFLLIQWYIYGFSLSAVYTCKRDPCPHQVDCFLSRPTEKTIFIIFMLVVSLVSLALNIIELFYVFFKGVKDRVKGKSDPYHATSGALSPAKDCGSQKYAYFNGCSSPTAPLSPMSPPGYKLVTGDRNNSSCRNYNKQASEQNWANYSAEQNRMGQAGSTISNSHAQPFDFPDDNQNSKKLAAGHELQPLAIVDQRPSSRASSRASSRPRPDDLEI

Cx43 hemichannels [2] = target: T1, Cx43 hemichannels (Rattus norvegicus, UniProt P08050); assay: Ethidium (Etd) dye uptake in astrocytes; type: cell-based; settings: 10 min preincubation
T1 construct: endogenous in cells; host or cells: primary hippocampal astrocytes of newborn (PN1) rats
T1 sequence (P08050 whole entry): as the sequence (P17302 whole entry) above, with D124E, I164V, K243R, S251T, A253P, A257S, Q263P, S344A, L347V counted along it
Protocol: F. Immunohistochemistry: Brain slices previously fixed in buffered 4% paraformaldehyde and maintained in 30% sucrose were mounted in gelatin coated glass slides. After rinsing with PBS, slices were blocked and permeabilized with 1% bovine serum albumin (BSA, Sigma-Aldrich), and 3% Triton X-100 in PBS for 1 h at room temperature. After rinsing again, sections were incubated overnight at 4° C. with the primary anti-Cx43 antibody (Sigma). Afterwards, sections were rinsed with PBS and incubated for 1 h at 37° C. with Alexa Fluor® 488-conjugated secondary antibody. […]
G.2. […] H. Dye uptake: For single image visualization of dye uptake, astrocytes were bathed in recording solution [in mM: NaCl (148), KCl (5), CaCl2 (1.8), MgCl2 (1), glucose (5), HEPES (5), pH=7.4] containing 5 μM ethidium (Etd) (Sigma-Aldrich, St-Louis, Mo.), and fluorescence intensity was recorded for 10 min in selected cells (ROI, regions of interest). […] Metafluor software (version 6.2R5, Universal Imaging Co., Downingtown, Pa., USA) was used for off-line image analysis and fluorescence quantification.
For data representation, the average of two independent background fluorescence intensity measurements (FB, expressed as arbitrary units, AU) was subtracted from the fluorescence intensity in each cell (F1). […] Slopes of dye uptake were calculated using Microsoft Excel software and expressed as AU/min. […]

Cx43 hemichannels [3] = target: Cx43 hemichannels (Homo sapiens, UniProt P17302); settings: cited from earlier work
Cx43 hemichannels (Homo sapiens, UniProt P17302), sequence (P17302 whole entry): as the sequence (P17302 whole entry) above

Sequence: YGRKKRRQRRRDGANVDMHLKQIEIKKFKYGIEEHGK [TAT-Cx43L2, synthetic cell-permeable peptide corresponding to the Cx43L2 region (aa 119-144) of the cytoplasmic loop of Cx43]
- effect on Cx43 gap junction channel communication, previously shown [1]: without affecting Cx43 gap junction channel communication
- hemichannel activity (Etd uptake) (Cx43 hemichannels [2]; control conditions): blocked astrocyte hemichannel activity; also recorded: inhibited hemichannel activity
- hemichannel activity (Etd uptake) (Cx43 hemichannels [2]; divalent cation-free solution (DCFS)): complete inhibition of hemichannel activity; also recorded: reduced Etd uptake to the same level as in control cells
- effect on Cx43 hemichannels, previously shown (Cx43 hemichannels [3]): selectively block Cx43 hemichannels
